Molecular target: E117K mutant of rabbit muscle pyruvate kinase (rabbit)
Assay: crystal structure; E117K mutant at 7 mg/mL in 50 mM Tris pH 7.0 with 1.0 mM ATP, 1.0 mM MgCl2, 0.2 mM oxalate; hanging drop; 0.2 M magnesium acetate, 0.1 M sodium cacodylate pH 6.5, 18% w/v PEG 8000; space group P212121, four copies in the asymmetric unit

stoichiometry N: 4
Substance: E117K mutant of rabbit muscle pyruvate kinase (enzyme)

From PMC8835810
